Test results: the supplement of paper PMC5998384

Key:
HeLa Kyoto [1] = experiment: melting temperature (median over replicates), in situ; higher = more thermally stable
HeLa Kyoto [2] = experiment: solubility in G1/S (NP-40 vs SDS abundance) (log2 ratio); higher = more soluble; conditions: cell cycle stage: G1/S
HeLa Kyoto [3] = experiment: thermal stability score vs G1/S (z-score of summed log2 fold changes over temperatures); higher = more thermally stable than in G1/S
HeLa Kyoto [4] = experiment: solubility change mitosis vs G1/S (difference of NP-40 vs SDS log2 ratios) (log2 ratio difference); higher = more soluble in mitosis
[5] = cell cycle stage: early G1 (4.5 h after nocodazole release)
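Throughout, for melting temperature (median over replicates), in situ: HeLa Kyoto cells synchronized by double thymidine or nocodazole block, proteins quantified by TMT10plex mass spectrometry, three independent biological replicates.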
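Throughout, for solubility change mitosis vs G1/S (difference of NP-40 vs SDS log2 ratios): synchronized HeLa Kyoto cells (double thymidine block for G1/S, nocodazole release for mitosis), protein amounts in NP-40 versus SDS lysates quantified by mass spectrometry, three biological replicates.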
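Throughout, for solubility in G1/S (NP-40 vs SDS abundance): HeLa Kyoto cells arrested at G1/S by double thymidine block, proteins quantified by TMT10plex mass spectrometry in mild NP-40 versus SDS extracts, three biological replicates.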
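Throughout, for thermal stability score vs G1/S (z-score of summed log2 fold changes over temperatures): synchronized HeLa Kyoto cells, proteins quantified by TMT10plex mass spectrometry, three biological replicates, mitosis taken 0.5 h after nocodazole release, G1/S directly after double thymidine block.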

| Sequence | melting temperature (HeLa Kyoto [1]; cell cycle stage: G1/S) | melting temperature (HeLa Kyoto [1]; cell cycle stage: mitosis) | solubility in G1/S (log2) (HeLa Kyoto [2]) | thermal stability score (HeLa Kyoto [3]; [5]) | thermal stability score (HeLa Kyoto [3]; cell cycle stage: mitosis) | solubility change mitosis (log2) (HeLa Kyoto [4]) |
| --- | --- | --- | --- | --- | --- | --- |
| MDSTLTASEIRQRFIDFFKRNEHTYVHSSATIPLDDPTLLFANAGMNQFKPIFLNTIDPSHPMAKLSRAANTQKCIRAGGKHNDLDDVGKDVYHHTFFEMLGSWSFGDYFKELACKMALELLTQEFGIPIERLYVTYFGGDEAAGLEADLECKQIWQNLGLDDTKILPGNMKDNFWEMGDTGPCGPCSEIHYDRIGGRDAAHLVNQDDPNVLEIWNLVFIQYNREADGILKPLPKKSIDTGMGLERLVSVLQNKMSNYDTDLFVPYFEAIQKGTGARPYTGKVGAEDADGIDMAYRVLADHARTITVALADGGRPDNTGRGYVLRRILRRAVRYAHEKLNASRGFFATLVDVVVQSLGDAFPELKKDPDMVKDIINEEEVQFLKTLSRGRRILDRKIQSLGDSKTIPGDTAWLLYDTYGFPVDLTGLIAEEKGLVVDMDGFEEERKLAQLKSQGKGAGGEDLIMLDIYAIEELRARGLEVTDDSPKYNYHLDSSGSYVFENTVATVMALRREKMFVEEVSTGQECGVVLDKTCFYAEQGGQIYDEGYLVKVDDSSEDKTEFTVKNAQVRGGYVLHIGTIYGDLKVGDQVWLFIDEPRRRPIMSNHTATHILNFALRSVLGEADQKGSLVAPDRLRFDFTAKGAMSTQQIKKAEEIANEMIEAAKAVYTQDCPLAAAKAIQGLRAVFDETYPDPVRVVSIGVPVSELLDDPSGPAGSLTSVEFCGGTHLRNSSHAGAFVIVTEEAIAKGIRRIVAVTGAEAQKALRKAESLKKCLSVMEAKVKAQTAPNKDVQREIADLGEALATAVIPQWQKDELRETLKSLKKVMDDLDRASKADVQKRVLEKTKQFIDSNPNQPLVILEMESGASAKALNEALKLFKMHSPQTSAMLFTVDNEAGKITCLCQVPQNAANRGLKASEWVQQVSGLMDGKGGGKDVSAQATGKNVGCLQEALQLATSFAQLRLGDVKN [AARS] | 51.6 °C | 52.1 °C | 0.201 | 2.25 | 2.81 | -0.1 |
| MDTKEEKKERKQSYFARLKKKKQAKQNAETASAVATRTHTGKEDNNTVVLEPDKCNIAVEEEYMTDEKKKRKSNQLKEIRRTELKRYYSIDDNQNKTHDKKEKKMVVQKPHGTMEYTAGNQDTLNSIALKFNITPNKLVELNKLFTHTIVPGQVLFVPDANSPSSTLRLSSSSPGATVSPSSSDAEYDKLPDADLARKALKPIERVLSSTSEEDEPGVVKFLKMNCRYFTDGKGVVGGVMIVTPNNIMFDPHKSDPLVIENGCEEYGLICPMEEVVSIALYNDISHMKIKDALPSDLPQDLCPLYRPGEWEDLASEKDINPFSKFKSINKEKRQQNGEKIMTSDSRPIVPLEKSTGHTPTKPSGSSVSEKLKKLDSSRETSHGSPTVTKLSKEPSDTSSAFESTAKENFLGEDDDFVDLEELSSQTGGGMHKKDTLKECLSLDPEERKKAESQINNSAVEMQVQSALAFLGTENDVELKGALDLETCEKQDIMPEVDKQSGSPESRVENTLNIHEDLDKVKLIEYYLTKNKEGPQVSENLQKTELSDGKSIEPGGIDITLSSSLSQAGDPITEGNKEPDKTWVKKGEPLPVKLNSSTEANVIKEALDSSLESTLDNSCQGAQMDNKSEVQLWLLKRIQVPIEDILPSKEEKSKTPPMFLCIKVGKPMRKSFATHTAAMVQQYGKRRKQPEYWFAVPRERVDHLYTFFVQWSPDVYGKDAKEQGFVVVEKEELNMIDNFFSEPTTKSWEIITVEEAKRRKSTCSYYEDEDEEVLPVLRPHSALLENMHIEQLARRLPARVQGYPWRLAYSTLEHGTSLKTLYRKSASLDSPVLLVIKDMDNQIFGAYATHPFKFSDHYYGTGETFLYTFSPHFKVFKWSGENSYFINGDISSLELGGGGGRFGLWLDADLYHGRSNSCSTFNNDILSKKEDFIVQDLEVWAFD [NCOA7] | 51 °C | 50.9 °C | 0.0391 | -0.286 | -0.429 | -0.15 |
| MDTPLRRSRRLGGLRPESPESLTSVSRTRRALVEFESNPEETREPGSPPSVQRAGLGSPERPPKTSPGSPRLQQGAGLESPQGQPEPGAASPQRQQDLHLESPQRQPEYSPESPRCQPKPSEEAPKCSQDQGVLASELAQNKEELTPGAPQHQLPPVPGSPEPYPGQQAPGPEPSQPLLELTPRAPGSPRGQHEPSKPPPAGETVTGGFGAKKRKGSSSQAPASKKLNKEELPVIPKGKPKSGRVWKDRSKKRFSQMLQDKPLRTSWQRKMKERQERKLAKDFARHLEEEKERRRQEKKQRRAENLKRRLENERKAEVVQVIRNPAKLKRAKKKQLRSIEKRDTLALLQKQPPQQPAAKI [CCDC86] | 57.2 °C | 54.1 °C | -1.03 | -0.356 | -4.77 | 0.956 |
| MDVERLQEALKDFEKRGKKEVCPVLDQFLCHVAKTGETMIQWSQFKGYFIFKLEKVMDDFRTSAPEPRGPPNPNVEYIPFDEMKERILKIVTGFNGIPFTIQRLCELLTDPRRNYTGTDKFLRGVEKNVMVVSCVYPSSEKNNSNSLNRMNGVMFPGNSPSYTERSNINGPGTPRPLNRPKVSLSAPMTTNGLPESTDSKEANLQQNEEKNHSDSSTSESEVSSVSPLKNKHPDEDAVEAEGHEVKRLRFDKEGEVRETASQTTSSEISSVMVGETEASSSSQDKDKDSRCTRQHCTEEDEEEDEEEEEESFMTSREMIPERKNQEKESDDALTVNEETSEENNQMEESDVSQAEKDLLHSEGSENEGPVSSSSSDCRETEELVGSNSSKTGEILSESSMENDDEATEVTDEPMEQD [PPP4R2] | 51.2 °C | 51.7 °C | 0.000183 | -0.271 | -0.968 | -0.111 |
| MDVFLMIRRHKTTIFTDAKESSTVFELKRIVEGILKRPPDEQRLYKDDQLLDDGKTLGECGFTSQTARPQAPATVGLAFRADDTFEALCIEPFSSPPELPDVMKPQDSGSSANEQAVQ [TCEB2] | 52 °C | 51.8 °C | 0.109 | 1.2 | -0.75 | 0.00166 |
| MDVLAEANGTFALNLLKTLGKDNSKNVFFSPMSMSCALAMVYMGAKGNTAAQMAQILSFNKSGGGGDIHQGFQSLLTEVNKTGTQYLLRMANRLFGEKSCDFLSSFRDSCQKFYQAEMEELDFISAVEKSRKHINTWVAEKTEGKIAELLSPGSVDPLTRLVLVNAVYFRGNWDEQFDKENTEERLFKVSKNEEKPVQMMFKQSTFKKTYIGEIFTQILVLPYVGKELNMIIMLPDETTDLRTVEKELTYEKFVEWTRLDMMDEEEVEVSLPRFKLEESYDMESVLRNLGMTDAFELGKADFSGMSQTDLSLSKVVHKSFVEVNEEGTEAAAATAAIMMMRCARFVPRFCADHPFLFFIQHSKTNGILFCGRFSSP [SERPINB6] | 55.8 °C | 56.1 °C | 0.174 | -1.49 | -2.35 | -0.136 |
| MDVLVSECSARLLQQEEEIKSLTAEIDRLKNCGCLGASPNLEQLQEENLKLKYRLNILRKSLQAERNKPTKNMINIISRLQEVFGHAIKAAYPDLENPPLLVTPSQQAKFGDYQCNSAMGISQMLKTKEQKVNPREIAENITKHLPDNECIEKVEIAGPGFINVHLRKDFVSEQLTSLLVNGVQLPALGENKKVIVDFSSPNIAKEMHVGHLRSTIIGESISRLFEFAGYDVLRLNHVGDWGTQFGMLIAHLQDKFPDYLTVSPPIGDLQVFYKESKKRFDTEEEFKKRAYQCVVLLQGKNPDITKAWKLICDVSRQELNKIYDALDVSLIERGESFYQDRMNDIVKEFEDRGFVQVDDGRKIVFVPGCSIPLTIVKSDGGYTYDTSDLAAIKQRLFEEKADMIIYVVDNGQSVHFQTIFAAAQMIGWYDPKVTRVFHAGFGVVLGEDKKKFKTRSGETVRLMDLLGEGLKRSMDKLKEKERDKVLTAEELNAAQTSVAYGCIKYADLSHNRLNDYIFSFDKMLDDRGNTAAYLLYAFTRIRSIARLANIDEEMLQKAARETKILLDHEKEWKLGRCILRFPEILQKILDDLFLHTLCDYIYELATAFTEFYDSCYCVEKDRQTGKILKVNMWRMLLCEAVAAVMAKGFDILGIKPVQRM [RARS] | 49 °C | 48.9 °C | -0.181 | 0.328 | 1.95 | -0.175 |
| MEAARTAVLRVKRKRSAEPAEALVLACKRLRSDAVESAAQKTSEGLERAAENNVFHLVATVCSQEEPVQPLLREVLRPSRDSQQRVRRNLRASAREVRQEGRYRVLSSRRSLGTTSSGQESEYTPGNPEAAGNSGFQLLDLVHEEGEPEAASAGSCKTSDPDVILCNSVELIRERLTVSEDGPGVRRQEEQKHDDYVYDIYYLETATPGWIENILSVQPYSQEWELVNDDQEPEDIYDDEDDENSENNWRNEYPEEESSDGDEDSRGSADYNSLSEEERGSSRQRMWSKYPLDVQKEFGYDSPHDLDSD [SLC7A6OS] | 52.4 °C | 54 °C | 0.343 | -0.0342 | 0.677 | -0.117 |
| MEAAVAAPRPRLLLLVLAAAAAAAAALLPGATALQCFCHLCTKDNFTCVTDGLCFVSVTETTDKVIHNSMCIAEIDLIPRDRPFVCAPSSKTGSVTTTYCCNQDHCNKIELPTTVKSSPGLGPVELAAVIAGPVCFVCISLMLMVYICHNRTVIHHRVPNEEDPSLDRPFISEGTTLKDLIYDMTTSGSGSGLPLLVQRTIARTIVLQESIGKGRFGEVWRGKWRGEEVAVKIFSSREERSWFREAEIYQTVMLRHENILGFIAADNKDNGTWTQLWLVSDYHEHGSLFDYLNRYTVTVEGMIKLALSTASGLAHLHMEIVGTQGKPAIAHRDLKSKNILVKKNGTCCIADLGLAVRHDSATDTIDIAPNHRVGTKRYMAPEVLDDSINMKHFESFKRADIYAMGLVFWEIARRCSIGGIHEDYQLPYYDLVPSDPSVEEMRKVVCEQKLRPNIPNRWQSCEALRVMAKIMRECWYANGAARLTALRIKKTLSQLSQQEGIKM [TGFBR1] | 50.2 °C | 50.8 °C | -0.00326 | 0.718 | 0.929 | -0.101 |
| MEAFQELRKPSARLECDHCSFRGTDYENVQIHMGTIHPEFCDEMDAGGLGKMIFYQKSAKLFHCHKCFFTSKMYSNVYYHITSKHASPDKWNDKPKNQLNKETDPVKSPPLPEHQKIPCNSAEPKSIPALSMETQKLGSVLSPESPKPTPLTPLEPQKPGSVVSPELQTPLPSPEPSKPASVSSPEPPKSVPVCESQKLAPVPSPEPQKPAPVSPESVKATLSNPKPQKQSHFPETLGPPSASSPESPVLAASPEPWGPSPAASPESRKSARTTSPEPRKPSPSESPEPWKPFPAVSPEPRRPAPAVSPGSWKPGPPGSPRPWKSNPSASSGPWKPAKPAPSVSPGPWKPIPSVSPGPWKPTPSVSSASWKSSSVSPSSWKSPPASPESWKSGPPELRKTAPTLSPEHWKAVPPVSPELRKPGPPLSPEIRSPAGSPELRKPSGSPDLWKLSPDQRKTSPASLDFPESQKSSRGGSPDLWKSSFFIEPQKPVFPETRKPGPSGPSESPKAASDIWKPVLSIDTEPRKPALFPEPAKTAPPASPEARKRALFPEPRKHALFPELPKSALFSESQKAVELGDELQIDAIDDQKCDILVQEELLASPKKLLEDTLFPSSKKLKKDNQESSDAELSSSEYIKTDLDAMDIKGQESSSDQEQVDVESIDFSKENKMDMTSPEQSRNVLQFTEEKEAFISEEEIAKYMKRGKGKYYCKICCCRAMKKGAVLHHLVNKHNVHSPYKCTICGKAFLLESLLKNHVAAHGQSLLKCPRCNFESNFPRGFKKHLTHCQSRHNEEANKKLMEALEPPLEEQQI [CHAMP1] | 48.8 °C | 50.3 °C | -0.327 | 1.41 | 3.68 | 0.221 |
